Publication PMC12283967 (Nature Communications, 2025)
Like-named read-outs stand apart in the source and are kept apart here.

Columns and labels:
SEC [1] = target: the molecule itself; assay: SEC
SEC [2] = target: the molecule itself; assay: SEC; remark: listed apart in the source

Protein	stoichiometry N (SEC [1])	stoichiometry N (SEC [2])
Sumo-His-tagged PFKM WT (enzyme, human, UniProt P08237 1-780, looked up) MTHEEHHAAKTLGIGKAIAVLTSGGDAQGMNAAVRAVVRVGIFTGARVFFVHEGYQGLVDGGDHIKEATWESVSMMLQLGGTVIGSARCKDFREREGRLRAAYNLVKRGITNLCVIGGDGSLTGADTFRSEWSDLLSDLQKAGKITDEEATKSSYLNIVGLVGSIDNDFCGTDMTIGTDSALHRIMEIVDAITTTAQSHQRTFVLEVMGRHCGYLALVTSLSCGADWVFIPECPPDDDWEEHLCRRLSETRTRGSRLNIIIVAEGAIDKNGKPITSEDIKNLVVKRLGYDTRVTVLGHVQRGGTPSAFDRILGSRMGVEAVMALLEGTPDTPACVVSLSGNQAVRLPLMECVQVTKDVTKAMDEKKFDEALKLRGRSFMNNWEVYKLLAHVRPPVSKSGSHTVAVMNVGAPAAGMNAAVRSTVRIGLIQGNRVLVVHDGFEGLAKGQIEEAGWSYVGGWTGQGGSKLGTKRTLPKKSFEQISANITKFNIQGLVIIGGFEAYTGGLELMEGRKQFDELCIPFVVIPATVSNNVPGSDFSVGADTALNTICTTCDRIKQSAAGTKRRVFIIETMGGYCGYLATMAGLAAGADAAYIFEEPFTIRDLQANVEHLVQKMKTTVKRGLVLRNEKCNENYTTDFIFNLYSEEGKGIFDSRKNVLGHMQQGGSPTPFDRNFATKMGAKAMNWMSGKIKESYRNGRIFANTPDSGCVLGMRKRALVFQPVAELKDQTDFEHRIPKEQWWLKLRPILKILAKYEIDLDTSDHAHLEHITRKRSGEAAV	4	2
Sumo-His-tagged PFKM F639L (enzyme, human, UniProt P08237 1-780, looked up) MTHEEHHAAKTLGIGKAIAVLTSGGDAQGMNAAVRAVVRVGIFTGARVFFVHEGYQGLVDGGDHIKEATWESVSMMLQLGGTVIGSARCKDFREREGRLRAAYNLVKRGITNLCVIGGDGSLTGADTFRSEWSDLLSDLQKAGKITDEEATKSSYLNIVGLVGSIDNDFCGTDMTIGTDSALHRIMEIVDAITTTAQSHQRTFVLEVMGRHCGYLALVTSLSCGADWVFIPECPPDDDWEEHLCRRLSETRTRGSRLNIIIVAEGAIDKNGKPITSEDIKNLVVKRLGYDTRVTVLGHVQRGGTPSAFDRILGSRMGVEAVMALLEGTPDTPACVVSLSGNQAVRLPLMECVQVTKDVTKAMDEKKFDEALKLRGRSFMNNWEVYKLLAHVRPPVSKSGSHTVAVMNVGAPAAGMNAAVRSTVRIGLIQGNRVLVVHDGFEGLAKGQIEEAGWSYVGGWTGQGGSKLGTKRTLPKKSFEQISANITKFNIQGLVIIGGFEAYTGGLELMEGRKQFDELCIPFVVIPATVSNNVPGSDFSVGADTALNTICTTCDRIKQSAAGTKRRVFIIETMGGYCGYLATMAGLAAGADAAYIFEEPFTIRDLQANVEHLVQKMKTTVKRGLVLRNEKCNENYTTDLIFNLYSEEGKGIFDSRKNVLGHMQQGGSPTPFDRNFATKMGAKAMNWMSGKIKESYRNGRIFANTPDSGCVLGMRKRALVFQPVAELKDQTDFEHRIPKEQWWLKLRPILKILAKYEIDLDTSDHAHLEHITRKRSGEAAV	2	–
